Source: paper PMC12239582, “The cyclic di-GMP receptor YcgR links the second messenger with the putrescine quorum sensing system in modulation of Dickeya oryzae motility” (mBio, 2025)

Target: T1, SpeA-His (Dickeya oryzae EC1, UniProt A0AB39IRQ5 1-658)
T1 sequence (looked up): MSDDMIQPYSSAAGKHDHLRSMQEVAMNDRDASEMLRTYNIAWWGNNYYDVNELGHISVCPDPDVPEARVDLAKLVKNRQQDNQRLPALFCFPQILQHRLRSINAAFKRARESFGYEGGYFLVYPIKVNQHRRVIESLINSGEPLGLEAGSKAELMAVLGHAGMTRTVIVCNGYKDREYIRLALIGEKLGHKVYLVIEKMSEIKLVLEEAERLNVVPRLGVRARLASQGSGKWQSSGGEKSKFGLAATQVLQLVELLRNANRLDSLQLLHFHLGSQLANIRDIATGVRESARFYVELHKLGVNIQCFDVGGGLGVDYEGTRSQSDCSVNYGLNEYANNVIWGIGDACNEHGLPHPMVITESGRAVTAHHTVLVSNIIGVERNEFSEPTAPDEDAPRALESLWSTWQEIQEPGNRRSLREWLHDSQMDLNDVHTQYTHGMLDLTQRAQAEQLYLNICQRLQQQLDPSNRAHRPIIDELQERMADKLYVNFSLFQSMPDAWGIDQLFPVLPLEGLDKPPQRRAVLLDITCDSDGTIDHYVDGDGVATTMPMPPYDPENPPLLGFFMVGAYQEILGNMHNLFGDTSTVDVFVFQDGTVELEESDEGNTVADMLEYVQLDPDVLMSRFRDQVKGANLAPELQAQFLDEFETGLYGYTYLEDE
Assay: cell-based or functional assay

B1: GST-YcgR (natural protein)
chain: MDVVDDNMKEQYARRGKMAICATLRGLQKQDATVMVYHTHGQFISKILEVDSDEEEFLFDLGALERENSRALFAGELGFVAETAGAKVEFRTTIIRTVEHDNLPAFCAAIPDVLYYIQRRNFFRINSPAWPPMVCRGELPDSTYFEFNLKDLSLGGLCMYTDDQGLAVLFEPGMILKNVDVDLASYGQFCLDMEFVNHATTKVVDSKGEVKQIERLSFKFPTLSAVQERGLQQVITELELDQNEKRKRLR
B1 was tested, and the “yield of agmatine made by SpeA in vitro (OPA fluorescence) with YcgR added at a 2:1 ratio, against the reaction without YcgR; 75% increase at 1 h to about 160% at 2 h” value was roughly 160%.
